Paper PMC2241918
Where two headings read alike, the source gives them in different places.

What was measured:
[1] = target: Cfr42I restriction endonuclease (Citrobacter freundii RFL42); test: AUC
[2] = target: T1, Cfr42I restriction endonuclease (Citrobacter freundii RFL42, UniProt B0LL99 1-216); test: EMSA
T1 sequence: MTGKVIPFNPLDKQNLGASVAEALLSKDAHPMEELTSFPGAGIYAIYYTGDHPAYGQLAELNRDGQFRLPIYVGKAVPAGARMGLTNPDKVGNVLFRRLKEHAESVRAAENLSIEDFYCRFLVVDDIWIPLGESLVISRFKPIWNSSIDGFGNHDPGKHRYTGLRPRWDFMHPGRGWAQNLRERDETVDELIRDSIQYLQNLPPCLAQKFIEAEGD

[3] = target: T1, Cfr42I restriction endonuclease; test: EMSA; remark: listed apart in the source

Cfr42I restriction endonuclease (enzyme)
stoichiometry N [1]: 4

B1: 30/30 (dsDNA)
DNA 1: AGACCCACGCCACCGCGGTGGAGATTACGG
DNA 2: CCGTAATCTCCACCGCGGTGGCGTGGGTCT
binding result [2]: binds

B2: 16/16 (dsDNA)
DNA 1: CGCCACCGCGGTGGCG
DNA 2: CGCCACCGCGGTGGCG
binding result [3]: binds
